# Tested on: T1, GST-SGK2 fusion protein (human SGK2 with N-terminal Glutathione S-transferase tag, expressed in Hi5 insect cells)
# T1 sequence: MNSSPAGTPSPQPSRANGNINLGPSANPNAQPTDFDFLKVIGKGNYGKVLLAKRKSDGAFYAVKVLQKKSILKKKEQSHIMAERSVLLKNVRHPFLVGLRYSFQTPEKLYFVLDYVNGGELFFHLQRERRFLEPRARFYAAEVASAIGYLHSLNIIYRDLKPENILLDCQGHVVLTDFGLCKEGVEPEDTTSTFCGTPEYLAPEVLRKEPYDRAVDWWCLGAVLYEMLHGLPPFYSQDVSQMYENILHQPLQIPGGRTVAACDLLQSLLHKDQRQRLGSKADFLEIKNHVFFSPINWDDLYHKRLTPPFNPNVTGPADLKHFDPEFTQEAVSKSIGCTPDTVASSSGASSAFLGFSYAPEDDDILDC
substance,measurement,value
"active His-tag PDK1 (expressed in insect cells, purified on Talon affinity column)","in vitro phosphorylation of SGK2 by PDK1 (32P, SDS-PAGE imaging)","SGK2 activated by PKD1 was significantly phosphorylated, while non-activated SGK2 was not"

# Source: patent US20020123056
